Test [1] addresses human CD127 on human blood T cells (human) (UniProt P16871). The test is described as follows: flow cytometry on CD3+ cells of three human donors.
In test [2] the target is CD127-Fc (Sino Biological) (UniProt P16871). The test is described as follows: SPR (Biacore), single cycle kinetics, CD127-Fc immobilised on CM5 chip, bivalent model. In general terms: SPR reads the build-up and loss of mass on a sensor chip optically.
Test [3] has as its target T1, CD127-Fc (Sino Biological) (UniProt P16871 21-239, limits assumed).
T1 construct: whole entry named; Immobilised by amine coupling on a CM5 chip; also called CD127 protein; not shown: Fc part of the bought fusion; not described
T1 sequence (looked up): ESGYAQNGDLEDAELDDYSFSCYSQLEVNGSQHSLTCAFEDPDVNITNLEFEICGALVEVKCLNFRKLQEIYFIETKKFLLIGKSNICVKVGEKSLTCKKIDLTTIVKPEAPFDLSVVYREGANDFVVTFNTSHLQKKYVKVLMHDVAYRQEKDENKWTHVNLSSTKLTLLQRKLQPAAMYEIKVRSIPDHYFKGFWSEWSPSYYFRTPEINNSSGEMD
The description is as above. The method, then:
CD127-Fc was immobilized by amine coupling on a CM5 chip. The carboxylic groups were esterified by injection of an NHS/EDC mix for 7 min. The CD127-Fc proteins diluted to 20 μg/ml in Na acetate buffer pH 4.6 were injected until an SPR signal of 500 RU was obtained. Free reactive sites were inactivated by injection of 1 M ethanolamine pH8.5 for 10 min.
Antibodies were analyzed in Single Cycle Kinetics (SCK) on CD127 to determine kinetic and affinity parameters. The surface functionalized with CD127-Fc was regenerated between each cycle by injection of a 4 M MgCl 2 solution for 30 seconds.

This is an account of results in US20200362300A1 (OSE IMMUNOTHERAPEUTICS, published 2020).

Molecule “eBIORDR5 (CD127 Monoclonal Antibody, eBioscience from Invitrogen/Thermo Fisher Scientific catalog # 14-1278-82)” returned a mean fluorescence intensity in test [1] of 4140 MFI. The molecule also came in with a Kd in test [2] of 0.0683 nM.

B1: Effi3-VH3VL3 (antibody, V domains shown)
VH: AVQLVESGGGLVQPGGSLKITCAASGFTFTNAAMYWVRQAPGKGLEWVARIRTKANNYATYYADSVKGRFTISRDDSKSTVYLQMDSVKTEDTATYYCIVVVLTTTRDYFDYWGQGVLVTVSS
VL: DIVLTQSPSSLPVTPGEPASISCRSSQSLLTVKGITSLYWFLQKPGQSPKLLIYRMSNRDSGVPDRFSGSGSETDFTLKISRVEAEDVGTYYCAQFLEYPHTFGAGTKLELKR
notes: also called Effi3-VH3L3; Effi3 clone VH3VL3
B1 gave a Kd in test [3] of 1.62 nM.
